# In US20150329644A1 (BRIGHAM AND WOMEN S HOSPITAL, published 2015):
# T1: Human LSD2 (residues 51-822) with N-terminal extra residues GPGS, as used for co-crystallization (human, UniProt Q8NB78 51-822)
# T1 construct: range 51-822; Construct of the LSD2-NPAC (PDB 4GUT) and LSD2-NPAC-H3K4M (PDB 4GUS, 4GUR) co-crystals; also called KDM1b; AOF1
# T1 sequence: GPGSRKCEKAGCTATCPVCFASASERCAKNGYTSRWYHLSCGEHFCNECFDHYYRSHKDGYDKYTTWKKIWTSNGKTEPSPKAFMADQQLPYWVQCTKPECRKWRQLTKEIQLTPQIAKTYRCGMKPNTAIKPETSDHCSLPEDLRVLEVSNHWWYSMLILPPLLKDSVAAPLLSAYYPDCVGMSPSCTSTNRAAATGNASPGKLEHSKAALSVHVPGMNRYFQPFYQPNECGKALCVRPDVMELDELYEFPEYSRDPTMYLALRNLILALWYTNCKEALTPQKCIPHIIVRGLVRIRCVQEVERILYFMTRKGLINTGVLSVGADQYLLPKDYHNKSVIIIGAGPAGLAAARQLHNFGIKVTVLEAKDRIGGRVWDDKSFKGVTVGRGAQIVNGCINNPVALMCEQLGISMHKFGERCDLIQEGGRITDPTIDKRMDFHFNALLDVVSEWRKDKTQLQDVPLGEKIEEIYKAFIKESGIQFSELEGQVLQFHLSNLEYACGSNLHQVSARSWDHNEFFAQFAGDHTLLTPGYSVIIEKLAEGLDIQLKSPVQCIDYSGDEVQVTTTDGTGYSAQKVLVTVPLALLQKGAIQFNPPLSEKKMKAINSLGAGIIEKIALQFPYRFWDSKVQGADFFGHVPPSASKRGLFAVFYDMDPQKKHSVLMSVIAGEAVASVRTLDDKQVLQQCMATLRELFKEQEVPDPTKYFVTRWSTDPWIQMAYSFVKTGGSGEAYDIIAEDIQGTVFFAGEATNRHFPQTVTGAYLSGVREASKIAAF
# B1: NPAC linker region (residues 152-268), as used for co-crystallization (other)
# chain: SERGSKSPLKRAQEQSPRKRGRPPKDEKDLTIPESSTVKGMMAGPMAAFKWQPTASEPVKDADPHFHHFLLSQTEKPAVCYQAITKKLKICEEETGSTSIQAADSTAVNGSITPTDK
# notes: Expressed with His6 and GST tags that were removed by 3C protease
# Molecular target: T1, Human LSD2 (residues 51-822) with …
# Test: co-crystal structures of LSD2 with the NPAC linker region (residues 152-268)
# Description: Crystallization and Data Collection. All crystals were grown using the hanging-drop vapor diffusion method. […] All crystals were examined on X8 Proteum system (Bruker AXS) and data sets were collected on beamline BL17U at Shanghai Synchrotron Radiation Facility (Shanghai, China).
binder,measurement,value
B1,binding result,binds
